The record followed here is patent publication US4371523A, “Reducing the aggregation of insulin in solution” (The Regents of the University of California, priority 1980, dated 1983).

What all share (assay type): physicochemical
Series [1] concerns the target T1, single component neutral pork zinc insulin (Sus scrofa, UniProt P01315).
T1 construct: single component, neutral, pork, zinc-insulin (U.500 regular Iletin II., Eli Lilly & Company); purchased Eli Lilly & Company U.500 regular Iletin II
As to the kind of experiment: Controlled shaking of zinc insulin solutions in test tubes, optical density at 600 nm. Conditions: for Optical Density ± 1 × SE: zinc insulin 50 U/ml, OD at 600 nm. The method, then: In vitro testing of single component neutral pork zinc insulin was undertaken with a number of added agents. Solutions at about neutral pH and at acid pH were tested. In addition, some testing was also undertaken with Na insulin.
The tests were conducted using plastic tybes (5 ml test tubes, Sarstedt, sealed by plastic caps covered with paraffin) each containing 2 ml of the insulin solutions noted below. The tubes were continuously agitated in a metabolic shaking incubator (Dubnoff E.C.A. Co.) at 60 to 80 r.p.m. and 37° C. for periods up to sixteen days.
The zinc insulin solutions were prepared by appropriate dilutions of highly concentrated (500 U/ml) single component, neutral, pork, zinc-insulin (U.500 regular Iletin II., Eli Lilly & Company). The unbuffered diluting fluid contained glycerin, 16 mg/ml, and phenol, 2 mg/ml of distilled water (Eli Lilly & Company). […] Final insulin concentration in all solutions was 50 U/ml (2 mg/ml).
Insulin solutions with amino acid added were prepared by addition of the dry amino acids (Sigma Company) to the neutral zinc or sodium insulin solutions. Final concentration of the amino acid additives was 7 mg per ml of insulin solution. pH was adjusted, when necessary, to 7.5 for neutral insulin mixtures and to 3.3-3.5 for acid insulin mixtures.
Several non-amino carboxylic acids, i.e., lactic acid, acetic acid, and citric acid, were added under the same conditions of concentration and pH as described for the amino acids.
The various insulin solutions, both as made up without additives and with additives, were shaken as noted above for up to sixteen days, at which time the solutions were examined with an optical densitometer at a wave length 600 nm. The optical density (OD) of each solution was an indication of the amount of aggregation present after the shaking period. The higher the optical density, the greater the aggregation in that solution.

Series [2] deals with T2, pork sodium-insulin (Sus scrofa, UniProt P01315).
T2 construct: pork sodium-insulin crystals (U.1000 neutral sodium insulin special pork obtained from Eli Lilly & Company); purchased Eli Lilly & Company U.1000 neutral sodium insulin special pork
T2 sequence (P01315 25-54 limits assumed): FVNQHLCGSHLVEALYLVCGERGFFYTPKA
T2 sequence (P01315 88-108 limits assumed): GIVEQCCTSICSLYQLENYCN
The series is described as follows: Controlled shaking of Na insulin solutions in test tubes, optical density at 600 nm. The following applies: Na insulin 50 U/ml, pH 3.5, shaken at 37° C., OD at 600 nm. The method, then: In vitro testing of single component neutral pork zinc insulin was undertaken with a number of added agents. Solutions at about neutral pH and at acid pH were tested. In addition, some testing was also undertaken with Na insulin. The tests were conducted using plastic tybes (5 ml test tubes, Sarstedt, sealed by plastic caps covered with paraffin) each containing 2 ml of the insulin solutions noted below. The tubes were continuously agitated in a metabolic shaking incubator (Dubnoff E.C.A. Co.) at 60 to 80 r.p.m. and 37° C. for periods up to sixteen days. The sodium insulin solutions were made by dissolving pork sodium-insulin crystals (U.1000 neutral sodium insulin special pork obtained from Eli Lilly & Company) in the same diluting fluid as utilized with the zinc insulin. The solutions were adjusted to neutral or acid pH as indicated above. Final insulin concentration in all solutions was 2 mg/ml (50 U/ml). Insulin solutions with amino acid added were prepared by addition of the dry amino acids (Sigma Company) to the neutral zinc or sodium insulin solutions. Final concentration of the amino acid additives was 7 mg per ml of insulin solution. pH was adjusted, when necessary, to 7.5 for neutral insulin mixtures and to 3.3-3.5 for acid insulin mixtures. The various insulin solutions, both as made up without additives and with additives, were shaken as noted above for up to sixteen days, at which time the solutions were examined with an optical densitometer at a wave length 600 nm. The optical density (OD) of each solution was an indication of the amount of aggregation present after the shaking period. The higher the optical density, the greater the aggregation in that solution.

The nature of series [3]: Controlled shaking of insulin solutions in 2-week minipumps equipped with small diameter catheters. Conditions: shaken 8 days at 37°. The method, then: Minipumps (Alzet Osmotic Minipump No. 2002, Alza Corporation, Palo Alto, Calif.) that release their contents ([…]) at a constant rate ([…]) over a minimum of 14 days were filled with insulin or amino acid-insulin solutions. The minipumps were weighed before and after filling to determine the initial inner fluid volume. A 5 cm vinyl catheter (Iv. soft medical polyvinyl tubing; i.D.=0.023 inch; Bolab Inc. Co., Derry, N.H.) was attached to the tubes' exterior beyond their flanges.
Acid and neutral insulin solutions were prepared with and without glutamic or aspartic acids as described in Example I except insulin concentrations were 120 U/ml (approximately 5 mg/ml). Glutamic and aspartic acids were added to a concentration of 7 mg/ml. The final pH's of the amino acid insulin solutions were 3.3-3.5.
Pumps with attached catheters were placed in a 5 ml plastic vial containing a cotton wad and sufficient saline to immerse and activate the pump. The catheter passed through a 0.5 ml air space at the top of the fluid in the tube, the terminal end being submerged in the saline. The tubes were sealed with a plastic cap covered with parafilm. They were shaken at 37° in a metabolic shaking incubator (Dubnoff E.C.A.) at 80-100 r.p.m. for periods up to 8 days. Pumps were removed from the tubes on the 8th day after shaking; catheters were examined for precipitates by eye and residual contents were removed and centrifuged in microtubes to evaluate the precipitate.

[4] abbreviates: pH 7.4, shaken 16 days at 37° C., higher OD = greater aggregation.

T1 sequence (P01315 25-54 limits assumed): as the sequence (P01315 25-54 limits assumed) above

`N[C@@H](CCC(=O)O)C(=O)O` [Glutamic Acid]: the “Protective effect against insulin aggregation (in words)” value is recorded as “prevented the development of any appreciable aggregation throughout the entire experiment” in series [1] (agent added to insulin solution at acid pH 3.3-3.5, listed as Glutamic acid); “particularly effective in protecting insulin solutions from aggregation” in series [1] (agent added to insulin solution at acid pH 3.3-3.5, listed as glutamic acid); “do not offer any effective protection” in series [1] (agent added to insulin solution at neutral pH (about pH 7, pH 7.4), listed as Glutamic acid); “the protective effect of the agents are no longer apparent” in series [1] (agent added to insulin solution at neutral pH (about pH 7, pH 7.4), listed as glutamic acid). The “Optical Density ± 1 × SE” value in series [1] (pH 3.3-3.5, shaken 16 days at 37° C.) is reported as 0.123 ± 0.02; in series [1] (setting [4]), 0.717 ± 0.266; in series [2], 0.13 ± 0.03.
Turning to “Neutral Single Component Zinc Insulin: single component, neutral, pork, zinc-insulin (U.500 regular Iletin II, Eli Lilly & Company), diluted, no agent added”, the “Time at which aggregates appeared” value in series [1] (acidified (pH 2.9-3.3), unbuffered) is “by the fourth day”. The “Aggregation of acidified unbuffered insulin solution (in words)” value in series [1] (pH 2.9-3.3, unbuffered, through day 16) is reported as “the aggregation was as great through day 16 as unacidified solutions”. Further, the “Optical Density ± 1 × SE” value in series [1] (pH 2.9-3.3, shaken 16 days at 37° C.) is 0.181 ± 0.03; in series [1] (setting [4]), 0.603 ± 0.08. Further, the “Number of Pumps with Aggregates in Catheter” value is on record as 4 in series [3] (pH 3.3, 120 U/ml, of 6 pumps) and 3 in series [3] (pH 7.4, 120 U/ml, of 3 pumps). In addition, the “Number of Pumps with Precipitates” value in series [3] (pH 3.3, 120 U/ml, of 6 pumps) was determined as 0; in series [3] (pH 7.4, 120 U/ml, of 3 pumps), 3.
